From PMC7311918, “Structures of Human Antibodies Bound to SARS-CoV-2 Spike Reveal Common Epitopes and Recurrent Features of Antibodies” (Cell, 2020) come the findings set out here.

Values joined by “and” are separate entries in the source; they are usually repeats but may differ in a detail not shown here. Equal entries are not always repeated.

The term stoichiometry N denotes the number of molecules, sites or subunits per partner or assembly.

This test addresses T1, SARS-CoV-2 S 2P trimer (S ectodomain, residues 16-1206) (SARS-CoV-2, early isolate GenBank …, UniProt P0DTC2, stabilised).
T1 construct: also called SARS-CoV-2 S protein; SARS-CoV-2 S trimer
In words: cryo-EM structure. The note with it: both partners purified.

B1: C105 Fab (Fab, V domains shown)
VH: QVQLVESGGGLIQPGGSLRLSCAASGFTVSSNYMSWVRQAPGKGLEWVSVIYSGGSTYYADSVKGRFTISRDNSKNTLYLQMNSLRAEDTAVYYCARGEGWELPYDYWGQGTLVTVSS
VL: QSALTQPPSASGSPGQSVTISCTGTSSDVGGYKYVSWYQQHPGKAPKLMIYEVSKRPSGVPDRFSGSKSGNTASLTVSGLQAEDEADYYCSSYEGSNNFVVFGGGTKLTVL
notes: also called mAb C105
As to B1, the “stoichiometry N” value is 2 Fabs per S trimer and 3 Fabs per S trimer.
